# Experimental data published in IntAct's records for PubMed 31515488.
# B1: EF-hand domain-containing protein 1 (Homo sapiens), Q5JVL4 (parent)
# chain: MVSNPVHGLPFLPGTSFKDSTKTAFHRSQTLSYRNGYAIVRRPTVGIGGDRLQFNQLSQAELDELASKAPVLTYGQPKQAPPADFIPAHVAFDKKVLKFDAYFQEDVPMSTEEQYRIRQVNIYYYLEDDSMSVIEPVVENSGILQGKLIKRQRLAKNDRGDHYHWKDLNRGINITIYGKTFRVVDCDQFTQVFLESQGIELNPPEKMALDPYTELRKQPLRKYVTPSDFDQLKQFLTFDKQVLRFYAIWDDTDSMYGECRTYIIHYYLMDDTVEIREVHERNDGRDPFPLLMNRQRVPKVLVENAKNFPQCVLEISDQEVLEWYTAKDFIVGKSLTILGRTFFIYDCDPFTRRYYKEKFGITDLPRIDVSKREPPPVKQELPPYNGFGLVEDSAQNCFALIPKAPKKDVIKMLVNDNKVLRYLAVLESPIPEDKDRRFVFSYFLATDMISIFEPPVRNSGIIGGKYLGRTKVVKPYSTVDNPVYYGPSDFFIGAVIEVFGHRFIILDTDEYVLKYMESNAAQYSPEALASIQNHVRKREAPAPEAESKQTEKDPGVQELEALIDTIQKQLKDHSCKDNIREAFQIYDKEASGYVDRDMFFKICESLNVPVDDSLVKELIRMCSHGEGKINYYNFVRAFSN
# partner: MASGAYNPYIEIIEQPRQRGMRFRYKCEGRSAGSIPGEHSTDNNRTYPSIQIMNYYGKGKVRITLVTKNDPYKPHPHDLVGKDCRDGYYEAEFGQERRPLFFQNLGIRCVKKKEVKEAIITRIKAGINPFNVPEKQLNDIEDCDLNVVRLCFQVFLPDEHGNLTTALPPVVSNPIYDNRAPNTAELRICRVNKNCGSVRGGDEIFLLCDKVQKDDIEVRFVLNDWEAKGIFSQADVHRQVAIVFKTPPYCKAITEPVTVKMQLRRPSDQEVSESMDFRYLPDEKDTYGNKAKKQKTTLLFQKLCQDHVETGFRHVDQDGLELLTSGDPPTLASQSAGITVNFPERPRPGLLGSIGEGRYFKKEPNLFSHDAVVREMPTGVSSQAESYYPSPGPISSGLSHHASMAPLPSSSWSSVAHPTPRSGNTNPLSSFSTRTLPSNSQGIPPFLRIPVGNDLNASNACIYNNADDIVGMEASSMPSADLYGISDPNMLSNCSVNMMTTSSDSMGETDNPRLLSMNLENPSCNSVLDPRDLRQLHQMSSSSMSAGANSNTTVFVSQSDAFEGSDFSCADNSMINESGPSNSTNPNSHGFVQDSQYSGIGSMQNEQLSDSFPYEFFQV
# B2: G patch domain and ankyrin repeat-containing protein 1 (Homo sapiens), O95872 (parent)
# chain: MSRPLLITFTPATDPSDLWKDGQQQPQPEKPESTLDGAAARAFYEALIGDESSAPDSQRSQTEPARERKRKKRRIMKAPAAEAVAEGASGRHGQGRSLEAEDKMTHRILRAAQEGDLPELRRLLEPHEAGGAGGNINARDAFWWTPLMCAARAGQGAAVSYLLGRGAAWVGVCELSGRDAAQLAEEAGFPEVARMVRESHGETRSPENRSPTPSLQYCENCDTHFQDSNHRTSTAHLLSLSQGPQPPNLPLGVPISSPGFKLLLRGGWEPGMGLGPRGEGRANPIPTVLKRDQEGLGYRSAPQPRVTHFPAWDTRAVAGRERPPRVATLSWREERRREEKDRAWERDLRTYMNLEF
# partner: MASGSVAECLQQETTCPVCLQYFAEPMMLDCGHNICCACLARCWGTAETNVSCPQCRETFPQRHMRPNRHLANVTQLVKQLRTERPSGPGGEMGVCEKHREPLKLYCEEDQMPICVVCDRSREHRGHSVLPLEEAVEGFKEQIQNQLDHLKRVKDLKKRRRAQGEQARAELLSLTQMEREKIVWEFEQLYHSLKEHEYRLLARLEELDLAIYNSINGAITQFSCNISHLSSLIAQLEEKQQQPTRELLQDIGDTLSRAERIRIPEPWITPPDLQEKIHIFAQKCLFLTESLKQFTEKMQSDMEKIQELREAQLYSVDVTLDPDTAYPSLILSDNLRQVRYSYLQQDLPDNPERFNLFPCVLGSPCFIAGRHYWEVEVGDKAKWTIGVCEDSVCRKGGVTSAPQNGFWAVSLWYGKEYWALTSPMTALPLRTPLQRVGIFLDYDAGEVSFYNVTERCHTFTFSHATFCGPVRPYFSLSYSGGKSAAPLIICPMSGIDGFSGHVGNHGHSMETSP
# B3: Protein N-lysine methyltransferase METTL21A (Homo sapiens), Q8WXB1 (parent)
# chain: MALVPYEETTEFGLQKFHKPLATFSFANHTIQIRQDWRHLGVAAVVWDAAIVLSTYLEMGAVELRGRSAVELGAGTGLVGIVAALLGAHVTITDRKVALEFLKSNVQANLPPHIQTKTVVKELTWGQNLGSFSPGEFDLILGADIIYLEETFTDLLQTLEHLCSNHSVILLACRIRYERDNNFLAMLERQFTVRKVHYDPEKDVHIYEAQKRNQKEDL
# B4: Vacuolar protein sorting-associated protein 4B (Homo sapiens), O75351 (parent)
# chain: MSSTSPNLQKAIDLASKAAQEDKAGNYEEALQLYQHAVQYFLHVVKYEAQGDKAKQSIRAKCTEYLDRAEKLKEYLKNKEKKAQKPVKEGQPSPADEKGNDSDGEGESDDPEKKKLQNQLQGAIVIERPNVKWSDVAGLEGAKEALKEAVILPIKFPHLFTGKRTPWRGILLFGPPGTGKSYLAKAVATEANNSTFFSISSSDLVSKWLGESEKLVKNLFQLARENKPSIIFIDEIDSLCGSRSENESEAARRIKTEFLVQMQGVGVDNDGILVLGATNIPWVLDSAIRRRFEKRIYIPLPEPHARAAMFKLHLGTTQNSLTEADFRELGRKTDGYSGADISIIVRDALMQPVRKVQSATHFKKVRGPSRADPNHLVDDLLTPCSPGDPGAIEMTWMDVPGDKLLEPVVSMSDMLRSLSNTKPTVNEHDLLKLKKFTEDFGQEG
# B5: H/ACA ribonucleoprotein complex subunit 3 (Homo sapiens), Q9NPE3 (parent)
# chain: MFLQYYLNEQGDRVYTLKKFDPMGQQTCSAHPARFSPDDKYSRHRITIKKRFKVLMTQQPRPVL
# partner: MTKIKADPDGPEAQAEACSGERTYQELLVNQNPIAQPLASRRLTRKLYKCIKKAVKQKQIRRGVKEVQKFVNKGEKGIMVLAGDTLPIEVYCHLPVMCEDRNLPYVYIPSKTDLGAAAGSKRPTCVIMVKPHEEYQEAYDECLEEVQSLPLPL
# B6: THAP domain-containing protein 8 (Homo sapiens), Q8NA92 (parent)
# chain: MPKYCRAPNCSNTAGRLGADNRPVSFYKFPLKDGPRLQAWLQHMGCEHWVPSCHQHLCSEHFTPSCFQWRWGVRYLRPDAVPSIFSRGPPAKSQRRTRSTQKPVSPPPPLQKNTPLPQSPAIPVSGPVRLVVLGPTSGSPKTVATMLLTPLAPAPTPERSQPEVPAQQAQTGLGPVLGALQRRVRRLQRCQERHQAQLQALERLAQQLHGESLLARARRGLQRLTTAQTLGPEESQTFTIICGGPDIAMVLAQDPAPATVDAKPELLDTRIPSA
# B7: Myomegalin (Homo sapiens), Q5VU43-2 (parent)
# chain: MKEICRICARELCGNQRRWIFHTASKLNLQVLLSHVLGKDVPRDGKAEFACSKCAFMLDRIYRFDTVIARIEALSIERLQKLLLEKDRLKFCIASMYRKNNDDSGAEIKAGNGTVDMSVLPDARYSALLQEDFAYSGFECWVENEDQIQEPHSCHGSEGPGNRPRRCRGCAALRVADSDYEAICKVPRKVARSISCGPSSRWSTSICTEEPALSEVGPPDLASTKVPPDGESMEEETPGSSVESLDASVQASPPQQKDEETERSAKELGKCDCCSDDQAPQHGCNHKLELALSMIKGLDYKPIQSPRGSRLPIPVKSSLPGAKPGPSMTDGVSSGFLNRSLKPLYKTPVSYPLELSDLQELWDDLCEDYLPLRVQPMTEELLKQQKLNSHETTITQQSVSDSHLAELQEKIQQTEATNKILQEKLNEMSYELKCAQESSQKQDGTIQNLKETLKSRERETEELYQVIEGQNDTMAKLREMLHQSQLGQLHSSEGTSPAQQQVALLDLQSALFCSQLEIQKLQRVVRQKERQLADAKQCVQFVEAAAHESEQQKEASWKHNQELRKALQQLQEELQNKSQQLRAWEAEKYNEIRTQEQNIQHLNHSLSHKEQLLQEFRELLQYRDNSDKTLEANEMLLEKLRQRIHDKAVALERAIDEKFSALEEKEKELRQLRLAVRERDHDLERLRDVLSSNEATMQSMESLLRAKGLEVEQLSTTCQNLQWLKEEMETKFSRWQKEQESIIQQLQTSLHDRNKEVEDLSATLLCKLGPGQSEIAEELCQRLQRKERMLQDLLSDRNKQVLEHEMEIQGLLQSVSTREQESQAAAEKLVQALMERNSELQALRQYLGGRDSLMSQAPISNQQAEVTPTGRLGKQTDQGSMQIPSRDDSTSLTAKEDVSIPRSTLGDLDTVAGLEKELSNAKEELELMAKKERESQMELSALQSMMAVQEEELQVQAADMESLTRNIQIKEDLIKDLQMQLVDPEDIPAMERLTQEVLLLREKVASVESQGQEISGNRRQQLLLMLEGLVDERSRLNEALQAERQLYSSLVKFHAHPESSERDRTLQVELEGAQVLRSRLEEVLGRSLERLNRLETLAAIGGAAAGDDTEDTSTEFTDSIEEEAAHHSHQQL
# partner: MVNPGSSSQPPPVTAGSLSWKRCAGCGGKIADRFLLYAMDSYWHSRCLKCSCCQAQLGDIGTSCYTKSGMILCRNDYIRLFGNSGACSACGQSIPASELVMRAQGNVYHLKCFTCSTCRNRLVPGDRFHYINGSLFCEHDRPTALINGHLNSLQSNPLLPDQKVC
# B8: Myomegalin (Homo sapiens), Q5VU43-2 (parent)
# chain: B7 chain
# B9: Myomegalin (Homo sapiens), Q5VU43-2 (parent)
# chain: B7 chain
# partner: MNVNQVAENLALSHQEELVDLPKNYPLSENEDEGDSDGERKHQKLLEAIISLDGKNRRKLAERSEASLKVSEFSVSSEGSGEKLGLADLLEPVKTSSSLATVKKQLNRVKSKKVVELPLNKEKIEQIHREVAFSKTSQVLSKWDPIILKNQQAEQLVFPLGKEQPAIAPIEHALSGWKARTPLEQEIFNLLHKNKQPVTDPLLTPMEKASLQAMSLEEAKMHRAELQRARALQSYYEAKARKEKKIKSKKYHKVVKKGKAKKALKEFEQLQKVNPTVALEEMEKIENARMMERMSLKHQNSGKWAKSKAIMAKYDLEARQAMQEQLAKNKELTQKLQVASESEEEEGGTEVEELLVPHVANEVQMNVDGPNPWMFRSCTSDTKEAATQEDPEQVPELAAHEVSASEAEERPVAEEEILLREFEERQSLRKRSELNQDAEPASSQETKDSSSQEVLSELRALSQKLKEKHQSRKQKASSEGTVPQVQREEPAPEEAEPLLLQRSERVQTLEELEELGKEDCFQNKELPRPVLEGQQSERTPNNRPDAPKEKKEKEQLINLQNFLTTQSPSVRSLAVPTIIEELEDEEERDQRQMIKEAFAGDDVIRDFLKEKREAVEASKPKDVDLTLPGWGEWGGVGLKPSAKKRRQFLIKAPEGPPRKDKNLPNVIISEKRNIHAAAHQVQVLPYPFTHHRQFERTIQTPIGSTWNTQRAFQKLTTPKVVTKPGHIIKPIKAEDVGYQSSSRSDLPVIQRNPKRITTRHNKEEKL
# Variants of: B1
# Settings: with rel_human REL
row,Variant,effect of a mutation on the interaction
1,Y102C,with no effect
2,R159W,with no effect
3,F229L,with no effect

# Variants of: B2
# Settings: with tri27_human TRIM27, P14373
row,Variant,effect of a mutation on the interaction
1,D56E,disrupting interaction strength

# Variants of: B3
# Settings: with FAM200C
row,Variant,effect of a mutation on the interaction
1,A209P,disrupting interaction strength

# Variants of: B4
# Settings: with anchr_human ZFYVE19, Q96K21
# anchr_human ZFYVE19, Q96K21, sequence (Q96K21 whole entry): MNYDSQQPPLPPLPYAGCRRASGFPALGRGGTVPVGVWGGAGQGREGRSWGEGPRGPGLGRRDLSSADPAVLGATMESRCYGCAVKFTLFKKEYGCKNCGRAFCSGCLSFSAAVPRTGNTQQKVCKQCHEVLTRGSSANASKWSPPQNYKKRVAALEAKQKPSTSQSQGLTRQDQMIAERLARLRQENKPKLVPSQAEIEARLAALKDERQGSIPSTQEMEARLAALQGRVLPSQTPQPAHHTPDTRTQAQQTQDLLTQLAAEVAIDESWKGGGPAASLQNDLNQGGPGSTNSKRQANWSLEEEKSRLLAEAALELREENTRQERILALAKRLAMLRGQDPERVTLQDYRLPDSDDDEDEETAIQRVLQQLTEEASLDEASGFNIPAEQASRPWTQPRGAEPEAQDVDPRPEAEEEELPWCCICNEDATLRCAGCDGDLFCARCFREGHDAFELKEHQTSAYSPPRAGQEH
row,Variant,effect of a mutation on the interaction
1,I58M,with no effect

# Variants of: B5
# Settings: with nhp2_human NHP2, Q9NX24
row,Variant,effect of a mutation on the interaction
1,D12H,with no effect

# Variants of: B6
# Settings: with tfp11_human TFIP11, Q9UBB9
# tfp11_human TFIP11, Q9UBB9, sequence (Q9UBB9 whole entry): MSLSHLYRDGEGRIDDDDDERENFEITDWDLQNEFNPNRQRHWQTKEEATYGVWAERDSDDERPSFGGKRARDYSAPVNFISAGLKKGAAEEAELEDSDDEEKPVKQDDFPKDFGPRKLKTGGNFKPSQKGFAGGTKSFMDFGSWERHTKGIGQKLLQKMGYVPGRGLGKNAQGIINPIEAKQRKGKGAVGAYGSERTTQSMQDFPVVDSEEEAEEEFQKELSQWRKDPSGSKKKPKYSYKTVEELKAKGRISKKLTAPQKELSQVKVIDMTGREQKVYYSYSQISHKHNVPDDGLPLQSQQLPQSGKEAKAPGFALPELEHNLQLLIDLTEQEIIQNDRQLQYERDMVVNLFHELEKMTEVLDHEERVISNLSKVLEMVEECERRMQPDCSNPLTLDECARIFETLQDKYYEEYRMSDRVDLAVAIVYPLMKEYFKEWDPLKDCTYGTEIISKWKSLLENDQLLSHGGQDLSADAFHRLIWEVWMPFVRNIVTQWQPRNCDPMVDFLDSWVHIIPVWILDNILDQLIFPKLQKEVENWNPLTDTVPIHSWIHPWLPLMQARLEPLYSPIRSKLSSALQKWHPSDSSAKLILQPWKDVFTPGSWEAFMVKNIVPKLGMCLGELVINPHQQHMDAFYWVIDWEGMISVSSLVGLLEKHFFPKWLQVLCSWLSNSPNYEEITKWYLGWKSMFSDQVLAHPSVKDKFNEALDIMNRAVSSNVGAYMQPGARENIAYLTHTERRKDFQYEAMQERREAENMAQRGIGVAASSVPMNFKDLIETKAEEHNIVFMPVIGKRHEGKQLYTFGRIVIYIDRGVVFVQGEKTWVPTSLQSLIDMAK
row,Variant,effect of a mutation on the interaction
1,P157S,with no effect
2,R185Q,with no effect
3,R189W,with no effect

# Variants of: B7
# Settings: with lmo4_human LMO4, P61968
row,Variant,effect of a mutation on the interaction
1,N28S,with no effect

# Variants of: B8
# Settings: with prp31_human PRPF31, Q8WWY3
# prp31_human PRPF31, Q8WWY3, sequence (Q8WWY3 whole entry): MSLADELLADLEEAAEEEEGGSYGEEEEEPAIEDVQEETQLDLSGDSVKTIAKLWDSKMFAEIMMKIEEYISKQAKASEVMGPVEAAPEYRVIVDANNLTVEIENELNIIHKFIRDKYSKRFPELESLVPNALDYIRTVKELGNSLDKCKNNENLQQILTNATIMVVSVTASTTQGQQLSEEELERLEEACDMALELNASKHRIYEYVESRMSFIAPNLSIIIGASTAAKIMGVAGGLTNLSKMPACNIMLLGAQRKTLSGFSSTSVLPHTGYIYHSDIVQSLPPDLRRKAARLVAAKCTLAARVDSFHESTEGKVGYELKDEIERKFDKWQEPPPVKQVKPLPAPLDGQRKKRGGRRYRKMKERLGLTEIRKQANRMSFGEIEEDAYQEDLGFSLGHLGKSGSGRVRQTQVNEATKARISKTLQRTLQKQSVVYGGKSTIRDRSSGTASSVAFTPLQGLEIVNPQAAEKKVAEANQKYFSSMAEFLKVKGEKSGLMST
row,Variant,effect of a mutation on the interaction
1,N28S,with no effect

# Variants of: B8
# Settings: with sdcb1_human SDCBP
row,Variant,effect of a mutation on the interaction
1,N28S,with no effect

# Variants of: B8
# Settings: with mare1_human MAPRE1, Q15691
# mare1_human MAPRE1, Q15691, sequence (Q15691 whole entry): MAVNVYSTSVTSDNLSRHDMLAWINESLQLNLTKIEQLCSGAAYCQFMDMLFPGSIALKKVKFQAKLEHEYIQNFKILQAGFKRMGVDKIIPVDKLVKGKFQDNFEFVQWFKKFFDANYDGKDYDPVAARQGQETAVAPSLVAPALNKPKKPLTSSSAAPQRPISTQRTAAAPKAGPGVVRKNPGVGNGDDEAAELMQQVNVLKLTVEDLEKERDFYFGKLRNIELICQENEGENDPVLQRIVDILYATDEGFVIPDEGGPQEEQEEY
row,Variant,effect of a mutation on the interaction
1,N28S,with no effect

# Variants of: B9
# Settings: with ut14c_human UTP14C
row,Variant,effect of a mutation on the interaction
1,N28S,with no effect
